This is an account of results in patent US20230033370A1 (Bicycle, published 2023).

*1 amine or outer side, *2 acyl side, *3 side chain or, on linkers, in order; H or OH if unused. Bridges are numbered along the chain shown (N, C = ends). Where no end group is shown, it is not given here. TCAN = N,N',N''-(nitrilotris(ethane-2,1-diyl))tris(2-chloroacetamide) scaffold, O=C(C[*:1])NCCN(CCNC(=O)C[*:2])CCNC(=O)C[*:3]

As a reminder, the Ki is a measure of affinity in units of concentration, obtained from inhibition or displacement.

In the assay the target is T1, Human IL-17A (human, UniProt Q16552 24-155).
T1 construct: Soluble IL-17A used at a fixed concentration (75 nM with tracer BCY13196) in the FP assay; also called CTLA-8
T1 sequence (looked up): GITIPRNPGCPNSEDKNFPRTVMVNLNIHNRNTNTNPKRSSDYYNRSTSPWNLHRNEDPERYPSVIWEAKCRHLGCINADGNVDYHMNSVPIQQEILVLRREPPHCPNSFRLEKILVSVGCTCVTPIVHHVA
Description: fluorescence polarization competition, 75 nM human IL-17A, 1 nM tracer BCY13196 as competitor, mean of n=3. As to the method: Affinity determination by fluorescence polarization (FP) competition. Bicycles were screened to determine affinity (Ki) in a fluorescence polarisation assay where in competition with a bicycle labelled with fluorescein (referred to as tracer) with a known affinity for IL-17A. Peptides were diluted to an appropriate concentration in assay buffer (PBS+0.01% Tween20, adjusted to pH7.4 using NaOH (1M)) with a maximum of 1% DMSO, then serially diluted 1 in 2 into assay buffer. Into black 384-well low volume plates, 5 μL of diluted peptide was added to the plate followed by 10 μL of IL-17A at a fixed concentration (75 nM IL-17A for tracer BCY13196, 50 nM IL-17A for tracer BCY13351), then 10 μL tracer added to a final concentration of 1 nM. Measurements were conducted on a BMG PHERAstar FS equipped with an “FP 485 520 520” optic module which excites at 485 nm and detects parallel and perpendicular emission at 520 nm. The PHERAstar FS was set at 25° C. with 200 flashes per well and a positioning delay of 0.1 second, with each well measured at 5 to 10 minute intervals for 60 minutes. The gain used for measurements was determined at the point of experiment on a tracer alone well. Data analysis was performed in Dotmatics where mP values were fit to the Cheng Prusoff equation in order to generate a Ki value. The tracers used was BCY13196: [Fl]-[…] […]

B1: BCY13061 (peptide)
peptide: ACPQDLELCTFLFGDCA
modifications: linker 2-9-16 via TCAN
notes: Synthetic bicyclic peptide cyclised on the TCAN scaffold
Take B1: the Ki was found to be 488 nM.
